From publication PMC8517087, “Analysis of M4 Transmembrane Segments in NMDA Receptor Function: A Negative Allosteric Modulatory Site at the GluN1 M4 is Determining the Efficiency of Neurosteroid Modulation” (Frontiers in Pharmacology, 2021) come the findings set out here.

Assay [1] has as its target GluN1/GluN2A^ΔM4 receptor (rat | mouse) (UniProt P35439).
Assay [2] addresses GluN1^ΔM4/GluN2A^F637A receptor (rat | mouse) (UniProt P35439).
Assay [3] has as its target GluN1^ΔM4/GluN2A receptor (M4-truncated core receptor) (rat | mouse) (UniProt P35439).

In assay [1], “M4^N1, isolated GluN1 M4 fragment (GluN 1^802–925) (from UniProt P35439 802-925) (domain or fragment)” yielded a rescue of agonist-induced current: Imax by TEVC in oocytes co-expressing M4^N1 with GluN1/GluN2A^ΔM4 of 0.016 µA. This substance showed a rescued Imax current (TEVC) of GluN1^ΔM4/GluN2A^F637A co-expressed with M4^N1, normalised to the unmutated receptor in assay [2] of 50 % decrease.
On to “M4^N1-F817A (from UniProt P35439 802-925) (domain or fragment)”, for which the rescue of agonist-induced current (TEVC) in oocytes co-expressing M4^N1-F817A with GluN1^ΔM4/GluN2A, compared with wt M4^N1 in assay [3] is 90 % decrease.
As to “M4^N2A, isolated GluN2A M4 fragment (GluN2A^804–1464) (from UniProt P35436 804-1464) (domain or fragment)”, the rescue of agonist-induced current: Imax by TEVC in oocytes co-expressing M4^N2A with GluN1/GluN2A^ΔM4 in assay [1] was 0.24 µA.
